# Experimental data from publication PMC8037251, “Molecular Characterization of the Extracellular Domain of Human Junctional Adhesion Proteins” (International Journal of Molecular Sciences, 2021).
# B1: MBP-fused extracellular domain of human JAM4 (Gly34-Arg286) (domain or fragment, UniProt Q9NSI5 34-286, looked up)
# chain: GSGSGNEVIEGPQNARVLKGSQARFNCTVSQGWKLIMWALSDMVVLSVRPMEPIITNDRFTSQRYDQGGNFTSEMIIHNVEPSDSGNIRCSLQNSRLHGSAYLTVQVMGELFIPSVNLVVAENEPCEVTCLPSHWTRLPDISWELGLLVSHSSYYFVPEPSDLQSAVSILALTPQSNGTLTCVATWKSLKARKSATVNLTVIRCPQDTGGGINIPGVLSSLPSLGFSLPTWGKVGLGLAGTMLLTPTCTLTIR
# notes: JAM4, human, extracellular domain, Gly34-Arg286 of Q9NSI5; No protease site between MBP and the target in the final design; Decamer by size exclusion; source: E. coli SHuffle T7 Express, purified (amylose resin, size exclusion chromatography); not shown: MBP, N-terminal, kept
# B2: MBP-fused extracellular domain of human JAM-B (Gly28-Ser238) (domain or fragment, UniProt P57087 28-238, looked up)
# chain: GFSAPKDQQVVTAVEYQEAILACKTPKKTVSSRLEWKKLGRSVSFVYYQQTLQGDFKNRAEMIDFNIRIKNVTRSDAGKYRCEVSAPSEQGQNLEEDTVTLEVLVAPAVPSCEVPSSALSGTVVELRCQDKEGNPAPEYTWFKDGIRLLENPRLGSQSTNSSYTMNTKTGTLQFNTVSKLDTGEYSCEARNSVGYRRCPGKRMQVDDLNIS
# notes: JAM-B, human, extracellular domain, Gly28-Ser238 of P57087; No protease site between MBP and the target in the final design; Octamer by size exclusion; also called junctional adhesion molecule B; source: E. coli SHuffle T7 Express, purified (amylose resin, size exclusion chromatography); not shown: MBP, N-terminal, kept
# B3: MBP-fused extracellular domain of human JAM-A (Gly27-Arg228) (domain or fragment, UniProt Q9Y624 27-228, looked up)
# chain: GSVTVHSSEPEVRIPENNPVKLSCAYSGFSSPRVEWKFDQGDTTRLVCYNNKITASYEDRVTFLPTGITFKSVTREDTGTYTCMVSEEGGNSYGEVKVKLIVLVPPSKPTVNIPSSATIGNRAVLTCSEQDGSPPSEYTWFKDGIVMPTNPKSTRAFSNSSYVLNPTTGELVFDPLSASDTGEYSCEARNGYGTPMTSNAVR
# notes: JAM-A, human, extracellular domain, Gly27-Arg228 of Q9Y624; No protease site between MBP and the target in the final design (pET28a-MBP, NdeI/XhoI); also called junctional adhesion molecule A; source: E. coli SHuffle T7 Express, purified (amylose resin, size exclusion chromatography); not shown: MBP, N-terminal, kept
# Legend:
# [1] = molecular target: B3; test: SPR; as the other SPR (OpenSPR, amine-coupled ligand on a Carboxy chip, caprate between injections, 1:1 Langmuir fit) but in the presence of 3 mM CaCl2 (E-CAD experiments); details: both partners purified
# [2] = molecular target: the molecule itself; test: as above
# [3] = molecular target: the molecule itself; test: SEC; ENrich SEC 650 10 x 300 column, PBS as running buffer; peak positions compared with BioRad size exclusion standards; oligomeric state of the MBP fusion
# [4] = molecular target: the molecule itself; test: SPR; OpenSPR (Nicoya), ligand protein (0.100 mg) amine-coupled to a Carboxy sensor chip; 1 M sodium caprate injected to disrupt preformed interactions and after each analyte; analyte 12.5-100 ug per 200 uL injection, triplicate; global fit, 1:1 Langmuir model, TraceDraw
# [5] = molecular target: B1; test: as above; details: both partners purified
# [6] = molecular target: B2; test: as above; details: both partners purified
Binder,Kd [1] [nM],koff [1] [s⁻¹],kon [1] [M⁻¹ s⁻¹],Kd [2] [nM],koff [2] [s⁻¹],kon [2] [M⁻¹ s⁻¹],stoichiometry N [3],Kd [4] [nM],koff [4] [s⁻¹],kon [4] [M⁻¹ s⁻¹],Kd [5] [nM],koff [5] [s⁻¹],kon [5] [M⁻¹ s⁻¹],Kd [6] [nM],koff [6] [s⁻¹],kon [6] [M⁻¹ s⁻¹]
MBP-fused extracellular domain of human epithelial cadherin (Val102-Asp312) (domain or fragment) VIPPISCPENEKGPFPKNLVQIKSNKDKEGKVFYSITGQGADTPPVGVFIIERETGWLKVTEPLDRERIATYTLFSHAVSSNGNAVEDPMEILITVTDQNDNKPEFTQEVFKGSVMEGALPGTSVMEVTATDADDDVNTYNAAIAYTILSQDPELPDKNMFTINRNTGVISVVTTGLDRESFPTYTLVVQAADLQGEGLSTTATAVITVTD,308,0.000708,2340,197,0.000696,4650,2,,,,,,,,,
B1,,,,,,,10,0.139,2.04e-07,1670,,,,,,
B2,,,,,,,8,9.97,5.36e-05,4800,159,0.000128,1210,,,
"MBP-fused extracellular domain of human JAM-C (Gly30-Glu236) (domain or fragment, UniProt Q9BX67 30-236, looked up, JAM-C, human, extracellular domain, Gly30-Glu236 of Q9BX67; No protease site between MBP and the target in the final design; Tetramer by size exclusion; also called junctional adhesion molecule C; source: E. coli SHuffle T7 Express, purified (amylose resin, size exclusion chromatography); not shown: MBP, N-terminal, kept) GAVNLKSSNRTPVVQEFESVELSCIITDSQTSDPRIEWKKIQDEQTTYVFFDNKIQGDLAGRAEILGKTSLKIWNVTRRDSALYRCEVVARNDRKEIDEIVIELTVQVKPVTPVCRVPKAVPVGKMATLHCQESEGHPRPHYSWYRNDVPLPTDSRANPRFRNSSFHLNSETGTLVFTAVHKDDSGQYYCIASNDAGSARCEEQEME",,,,,,,4,30.2,2.26e-05,782,0.0925,1.96e-07,2030,0.203,1.76e-05,85400
B3,,,,,,,2,76.6,0.000838,13100,2.33,4.09e-06,1600,2.82,5.09e-05,16500
